# Publication doi:10.1101/2025.06.11.659212 (bioRxiv, 2025)
# B1: cyanide hydratase from Gloeocercospora sorghi (enzyme, UniProt P32964 1-368, looked up)
# chain: MPINKYKAAVVTSEPVWENLEGGVVKTIEFINEAGKAGCKLIAFPEVWIPGYPYWMWKVNYLQSLPMLKAYRENSIAMDSSEMRRIRAAARDNQIYVSIGVSEIDHATLYLTQVLISPLGDVINHRRKIKPTHVEKLVYGDGSGDSFEPVTQTEIGRLGQLNCWENMNPFLKSLAVARGEQIHVAAWPVYPDLSKQVHPDPATNYADPASDLVTPAYAIETGTWVLAPFQRISVEGLKRHTPPGVEPETDATPYNGHARIFRPDGSLYAKPAVDFDGLMYVDIDLNESHLTKALADFAGHYMRPDLIRLLVDTRRKELVTEVGGGDNGGIQSYSTMARLGLDRPLEEEDYRQGTDAGETEKASSNGHA
# B2: cyanide dihydratase from Bacillus safensis strain PER-URP-08 (enzyme, UniProt P0DXY3 1-330, looked up)
# chain: MTSIYPKFRAAAVQAAPVYLNLEATVEKSCELIDEAASNGAKLVAFPEAFLPGYPWFAFIGHPEYTRKFYHELYKNAVEIPSLAIQKISEAAKRNETYVCISCSEKDGGSLYLAQLWFNPNGDLIGKHRKMRASVAERLIWGDGSGSMMPVFQTDIGNLGGLMCWEHQVPLDLMAMNAQNEQVHVASWPGYFDDEISSRYYAIATQTFVLMTSSIYTEEMKEMICLTQEQRDYFETFKSGHTCIYGPDGEPISDMVPAETEGIAYAEIDVERVIDYKYYIDPAGHYSNQSLSMNFNQQPTPVVKQLYHQKNEVFTYEDIQYQHGILEEKV
# Molecular target: the molecule itself
# Assay: cryo-EM structure
row,Protein,stoichiometry N
1,B1,24 monomers
2,B2,18 monomers
